Substrate: O=C1CN[C@H](C(=O)O)C1
Assay: purified protein
Type: biochemical, Homo sapiens
Conditions: NADH binds the HsBDH2:NADH complex; receives the pro-S hydrogen from NADH

B1: 4-oxo-L-proline reductase (HsBDH2) (Homo sapiens) (protein)
chain: MGRLDGKVIILTAAAQGIGQAAALAFAREGAKVIATDINESKLQELEKYPGIQTRVLDVTKKKQIDQFANEVERLDVLFNVAGFVHHGTVLDCEEKDWDFSMNLNVRSMYLMIKAFLPKMLAQKSGNIINMSSVASSVKGVVNRCVYSTTKAAVIGLTKSVAADFIQQGIRCNCVCPGTVDTPSLQERIQARGNPEEARNDFLKRQKTGRFATAEEIAMLCVYLASDESAYVTGNPVIIDGGWSL
- Km: 176 µM
